The source of these data is publication PMC9828297 (Acta Biochimica et Biophysica Sinica, 2022).

The data set concerns the molecule itself. Nature of the data set: SEC.

B1: polyketide cyclase from Mycobacterium tuberculosis (MtPC) (natural protein)
chain: MGSTPPRTPQEVFAHHGQALAAGDLDEIVADYADDSFVITPAGIARGKEGIRQLFVKLLDDIPNALWDLKTQIFEGDILFLEWTANSAVSRVDDGVDTFVFRDGTIWAHTVRYTPHPKT
What is called stoichiometry N is a count of units in the complex or per binding partner. For B1, the “stoichiometry N” value is 2.
